# Entries after “also recorded” stand apart in the source; their conditions may differ. Where no end group is shown, it is not given here.
# B1: VEGF121: human recombinant vascular endothelial growth factor 121 isoform produced in Sf-21 insect cells (protein)
# chain: APMAEGGGQNHHEVVKFMDVYQRSYCHPIETLVDIFQEYPDEIEYIFKPSCVPLMRCGGCCNDEGLECVPTEESNITMQIMRIKPHQGQHIGEMSFLQHNKCECRPKKDRARQEKCDKPRR
# How the values were obtained:
# [1] = target: T1, KDR/Flk-1 and VEGF165R on HUVEC (Homo sapiens, UniProt O14786); assay: Inhibition of 125I-VEGF165 binding to HUVEC
# T1 construct: HUVEC, which express both KDR/Flk-1 and VEGF165R; endogenous in cells; host or cells: HUVEC (ATCC)
# Description: (§1) FIGS. 3A-3C. Inhibition of ^125I-VEGF165 binding to HUVEC, MDA MB 231 cells, and PAE-KDR cells by GST-EX 7+8. ^125I-VEGF165 (5 ng,/ml) was bound to subconfluent cultures of HUVEC (3A), MDA MB 23 1 cells (3B), and PAE-KDR cells (3C) in 48-well dishes in the presence of increasing amounts of GST-Ex 7+8 (closed 20 square) or control GST protein (open squares). At the end of a 2-h incubation, the cells were washed and lysed, and the cell-associated radioactivity was determined with a γ-counter. The counts obtained are expressed as the percentage of the counts obtained in the presence of PBS without addition of GST or fusion protein.
# FIGS. 5A and 5B. Localization of a core inhibitory region within exon 7. GST-Ex 7 fusion proteins containing full-length exon 7-encoded domain or truncations at the N-terminal and C-terminal ends were prepared as described in the Examples. ^125I-VEGF165 (5 ng/ml) was bound to subconfluent HUVEC cultures as described in FIG. 3, in the presence of increasing concentrations of the GST fusion proteins. At the end of a 2-h incubation, the cells were washed and lysed, and the cell-associated radioactivity was determined with a y counter. The counts obtained are expressed as percentage of the counts obtained in the presence of PBS without fusion protein B, the amino acid sequences of VEGF exon 7 derivatives. These derivatives were prepared to contain the first cysteine residue of exon 8 at their C termini to keep an even number of cysteine residue. FIG. 5B discloses SEQ ID NO: 19.
# (§2) Binding and cross-linking experiments using 125I-VEGF165 and 125I-VEGF121 were performed at described previously (Gitay-Goren, et al., J. Biol. Chem., 287, 6003-6096 (1992), Soker, et al., J: Biol. Chem., 271,5761-5767 (1996)). VEGF binding was quantified by measuring the cell-associated radioactivity in a y-counter (Beckman, Gamma 5500). The counts represent the average of three walls. All experiments were repeated at least three times, and similar results were obtained. 125I-VEGF cross-linked complexes were resolved by 6% SDS-PAGE, and the gels were exposed to a phosphor screen and scanned after 24 h by a PhosphorImager (Molecular Dynamics). Subsequently, the gels were exposed to x-ray film.
# VEGF165R on 231 cells [2] = target: T2, VEGF165R on 231 cells (Homo sapiens, UniProt O14786); assay: Inhibition of 125I-VEGF165 binding to MDA-MB-231 (231) cells
# T2 construct: to 231 cells which express only VEGF165R; endogenous in cells; host or cells: MDA-MB-231 (ATCC)
# Description: as §1, §2
# [3] = target: T3, KDR/Flk-1 on PAE-KDR cells (Homo sapiens, UniProt P35968); assay: Inhibition of 125I-VEGF165 binding to PAE-KDR cells; design: species or system porcine endothelial cells transfected to express KDR/Flk-1
# T3 construct: expressed in transfected cells; host or cells: porcine endothelial cells (PAE), gift of Dr. Claesson-Welsh
# Description: as §1
# Human umbilical vein endothelial cells (HUVEC) were obtained from the American Type Culture Collection (ATCC) (Rockville, Md.) and grown on gelatin-coated dishes in M-199 medium containing 20% fetal calf serum (FCS) and a mixture of glutamine, penicillin, and streptomycin (GPS). Basic FGF (1 nglml) was added to the culture medium every other day. Porcine endothelial cells (PAE), parental and transfected to express KDRElk-1 (PAE-KDR), were kindly provided by Dr. Lema Claesson-Welsh and grown in F12 medium containing 10% FCS and GPS as described (Waltenberger, et al., J. Biol. Chem., 269,26988-26995 (1994)). MDAMB-231 (231) cells were obtained from ATCC and grown in Bulbecoo's modified Eagle's medium containing 10% FCS and GPS.
# as §2
# VEGF165R on 231 cells [4] = target: T2, VEGF165R on 231 cells; conditions: Soker et al., J. Biol. Chem. 271, 5761-5767 (1996); cited from earlier work
# VEGF165R = VEGF165R (Homo sapiens, UniProt O14786); assay: Direct binding/cross-linking of 125I-GST-Ex 7 to HUVEC: VEGF165R; design: HUVEC, which express both KDR/Flk-1 and VEGF165R; endogenous in cells; host or cells: HUVEC (ATCC); conditions: cross-linking, 1 ug/ml heparin, FIG. 1 lane 3; listed as exon 7 fusion protein
# Description: (§3) FIG. 1. Cross-linking of 1 ^125I-VEGF165, ^125I-VEGF121 and ^125I-GST-EX 7 to HUVEC. ^125I-VEGF165 (5 ng/ml) (lane 1) or ^125I-VEGF121 (10 ng/ml) (lane 2) or ^125I-GST-EX 7 (50 nglml) (lane 3) were bound to subconfluent cultures of HUVEC in 6-cm dishes. The binding was carried out in the presence of 1 ug/ml heparin. At the end of a 2-H incubation, each ^125I-VEGF isoform was chemically cross-linked to the cell surface. The cells were lysed and proteins were resolved by 6% SDS-PAGE. The polyacrylamide gel was dried and exposed to x-ray film.
# as §2
# KDR/Flk-1 = KDR/Flk-1 (Homo sapiens, UniProt P35968); assay: Direct binding/cross-linking of 125I-GST-Ex 7 to HUVEC: KDR/Flk-1; design: HUVEC, which express both KDR/Flk-1 and VEGF165R; endogenous in cells; host or cells: HUVEC (ATCC); conditions: cross-linking, 1 ug/ml heparin, FIG. 1 lane 3; listed as exon 7 fusion protein
# Description: as §3, §2
# HUVEC = HUVEC proliferation ([3H]thymidine incorporation) in response to VEGF isoforms; assay type: cell-based, human
# Description: FIG. 2. HUVEC proliferation in response to VEGF165 and VEGF121 HUVEC were cultured in 96-well dishes (5,000 cell/well) for 24 h. Increasing amounts of VEGF165 (closed circles) or VEGF121 (open circles) were added to the medium, and the cells were incubated for 3 more days. DNA synthesis based on the incorporation of [3H] thymidine into HUVEC DNA was measured as described in the Examples. The results represent the average counts in three wells, and the standard deviations were determined.
# (§4) FIG. 6. GST-Ex 7+8 fusion protein inhibits VEGF165-stimulated HUVEC proliferation. HUVEC were cultured in 96-well dishes (5,000 cell/well) as in FIG. 2. Increasing concentrations of VEGF165 (open circles), together with 15 ug/ml GST-Ex 7+8 (closed circles) or 25 ug/ml GST (squares), were added to the medium, and the cells were incubated for 4 more days. DNA synthesis was measured in HUVEC as described in FIG. 2. The results represent the average counts of three wells, and the standard deviations were determined.
# (§5) HUVEC were seeded in gelatin-coated 96-well dishes at 4,000 cells/200 Ul/well in M-199 containing 5% FCS and GPS. After 24 H, VEGF isoforms and VEGF exon 7-GST fusion proteins were added to the wells at the same time. The cells were incubated for 72 h, and [3H]thymidine (1 pC/ml) was added for 10-12 h. The medium was aspirated, and the cells were trypsinized and harvested by an automatic cell harvester (TOMTEC) and loaded onto Filtermats (Wallac). The Filtermats were scanned and cpm were determined by a MicroBeta counter (Wallac). The results represent the average of samples assayed in triplicate, and the standard derivations were determined. All experiments were repeated at least three times and similar results were obtained.
# [5] = test system: VEGF165-induced proliferation of HUVEC; assay: Inhibition of VEGF165-stimulated HUVEC proliferation; assay type: cell-based, human; conditions: even at 25 ug/ml
# Description: as §4
# FIG. 7. GST-Ex 7+8 fusion protein inhibits VEGF165 and VEGF121-stimulated HUVEC proliferation. Increasing concentration of VEGF165 (circles) or VEGF121 (square) with 15 ug/ml GST-Ex 7+8 (closed symbols) or without GST-Ex 7+8 (open symbols) were added to HUVEC, and [*H]thymidine incorporation into the DNA was measured as in FIG. 2. The results represent the average counts of three wells and the standard deviations were determined.
# as §5
# [6] = control GST protein, even at 20 μg/ml
# T2 sequence (O14786 22-923): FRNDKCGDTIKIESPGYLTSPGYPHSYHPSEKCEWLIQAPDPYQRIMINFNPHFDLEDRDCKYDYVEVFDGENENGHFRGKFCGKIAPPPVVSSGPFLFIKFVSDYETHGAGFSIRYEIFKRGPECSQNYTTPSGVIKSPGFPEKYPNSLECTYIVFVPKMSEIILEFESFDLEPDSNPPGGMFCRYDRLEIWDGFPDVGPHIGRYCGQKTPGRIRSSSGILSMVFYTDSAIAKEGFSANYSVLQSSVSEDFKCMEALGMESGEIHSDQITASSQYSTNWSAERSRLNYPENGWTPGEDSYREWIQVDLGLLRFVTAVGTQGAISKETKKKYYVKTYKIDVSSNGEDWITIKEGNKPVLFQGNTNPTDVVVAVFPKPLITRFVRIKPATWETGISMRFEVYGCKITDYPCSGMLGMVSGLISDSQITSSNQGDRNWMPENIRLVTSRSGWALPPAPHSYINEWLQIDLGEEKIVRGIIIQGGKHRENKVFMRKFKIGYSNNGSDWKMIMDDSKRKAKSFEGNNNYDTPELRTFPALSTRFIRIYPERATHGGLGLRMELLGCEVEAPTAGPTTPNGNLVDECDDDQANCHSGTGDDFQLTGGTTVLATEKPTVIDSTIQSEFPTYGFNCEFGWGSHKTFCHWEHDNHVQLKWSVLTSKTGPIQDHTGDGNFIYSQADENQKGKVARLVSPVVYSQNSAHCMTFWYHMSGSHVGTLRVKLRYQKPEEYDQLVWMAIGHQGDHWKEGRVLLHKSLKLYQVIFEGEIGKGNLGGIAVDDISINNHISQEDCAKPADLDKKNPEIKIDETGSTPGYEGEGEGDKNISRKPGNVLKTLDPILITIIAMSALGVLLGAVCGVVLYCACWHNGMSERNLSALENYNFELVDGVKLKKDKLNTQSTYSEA
# T1 sequence (O14786 22-923): as above
# T3 sequence (P35968 20-1356): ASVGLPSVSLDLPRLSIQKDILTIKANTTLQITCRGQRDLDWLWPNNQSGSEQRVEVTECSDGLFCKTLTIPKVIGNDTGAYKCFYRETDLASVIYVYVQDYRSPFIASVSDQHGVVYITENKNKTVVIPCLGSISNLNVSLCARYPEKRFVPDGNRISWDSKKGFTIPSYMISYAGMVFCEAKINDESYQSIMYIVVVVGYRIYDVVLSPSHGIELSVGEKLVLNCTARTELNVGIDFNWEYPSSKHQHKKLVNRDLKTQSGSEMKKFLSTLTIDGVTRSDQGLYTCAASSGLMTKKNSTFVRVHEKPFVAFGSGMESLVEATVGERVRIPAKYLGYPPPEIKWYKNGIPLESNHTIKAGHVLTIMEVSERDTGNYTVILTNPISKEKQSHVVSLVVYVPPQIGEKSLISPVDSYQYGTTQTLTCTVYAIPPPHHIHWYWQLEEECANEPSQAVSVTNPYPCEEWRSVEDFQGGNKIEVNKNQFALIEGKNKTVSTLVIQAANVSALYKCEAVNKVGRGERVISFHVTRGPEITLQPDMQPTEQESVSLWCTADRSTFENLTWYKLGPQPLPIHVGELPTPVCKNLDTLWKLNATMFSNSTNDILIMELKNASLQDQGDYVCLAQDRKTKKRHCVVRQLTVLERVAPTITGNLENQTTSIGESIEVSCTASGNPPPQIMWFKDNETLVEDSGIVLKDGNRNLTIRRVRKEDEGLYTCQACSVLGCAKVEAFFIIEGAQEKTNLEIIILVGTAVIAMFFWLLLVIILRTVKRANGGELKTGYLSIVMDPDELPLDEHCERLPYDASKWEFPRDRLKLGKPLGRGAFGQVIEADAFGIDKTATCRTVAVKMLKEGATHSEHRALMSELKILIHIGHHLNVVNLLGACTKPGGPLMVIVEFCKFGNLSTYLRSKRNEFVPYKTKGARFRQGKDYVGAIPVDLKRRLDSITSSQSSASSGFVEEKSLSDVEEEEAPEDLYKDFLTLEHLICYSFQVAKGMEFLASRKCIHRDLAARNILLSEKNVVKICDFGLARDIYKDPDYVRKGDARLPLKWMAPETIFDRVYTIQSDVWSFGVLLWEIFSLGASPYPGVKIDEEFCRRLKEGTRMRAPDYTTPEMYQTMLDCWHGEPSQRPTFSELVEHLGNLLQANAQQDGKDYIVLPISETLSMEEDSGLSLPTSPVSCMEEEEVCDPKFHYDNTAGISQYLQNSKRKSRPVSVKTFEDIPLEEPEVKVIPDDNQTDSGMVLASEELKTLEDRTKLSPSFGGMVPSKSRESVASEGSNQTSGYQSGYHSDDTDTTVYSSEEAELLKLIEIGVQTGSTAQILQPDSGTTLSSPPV
# VEGF165R, sequence (O14786 22-923): as the sequence (O14786 22-923) above
# KDR/Flk-1, sequence (P35968 20-1356): as the sequence (P35968 20-1356) above
molecule,measurement,setting,value
"GST-Ex 7d-(1-10): GST-exon 7 fusion protein with the first 10 N-terminal amino acids of exon 7 deleted (HLFVQDPQTCKCSCKNTDSRCKARQLELNERTCRC; cysteine pairing not given here; also: GST fusion protein, side of fusion not given here)","inhibitory activity on 125I-VEGF165 binding to HUVEC after deletion in exon 7, versus GST-Ex 7 (in words)","[1]; FIG. 5, increasing concentrations",did not reduce the inhibitory activity
GST-Ex 7: GST fusion protein with the entire 44 amino acid VEGF exon 7-encoded domain plus first cysteine residue of exon 8,inhibition of 125I-VEGF165 binding to HUVEC,"[1]; 2 ug/ml fusion protein, FIG. 5",80%
same,inhibition of 125I-VEGF165 binding to HUVEC,"[1]; 125I-VEGF165 5 ng/ml, increasing concentrations of fusion protein, FIG. 3A",85-95%
same,inhibition of 125I-VEGF165 binding to HUVEC compared with GST-Ex 7+8 (in words),[1]; data not shown,comparable to that of GST-Ex 7+8
same,inhibition of 125I-VEGF165 binding to 231 cells,"VEGF165R on 231 cells [2]; 125I-VEGF165 5 ng/ml, increasing concentrations of fusion protein, FIG. 3B",98%
same,inhibition of 125I-VEGF165 binding to 231 cells compared with GST-Ex 7+8 (in words),VEGF165R on 231 cells [2]; data not shown,comparable to that of GST-Ex 7+8
same,inhibition of 125I-VEGF165 binding to PAE-KDR cells (in words),"[3]; 125I-VEGF165 5 ng/ml, FIG. 3C","did not, however, inhibit at all"
same,direct binding to VEGF165R on 231 cells (in words),VEGF165R on 231 cells [4],binds directly
same,direct binding to VEGF165R on HUVEC (in words),VEGF165R,binds directly; also recorded: could bind
same,direct binding to KDR/Flk-1 on HUVEC (in words),KDR/Flk-1,not and does not bind directly
VEGF165: human recombinant vascular endothelial growth factor 165 isoform produced in Sf-21 insect cells,increase in the proliferation rate of HUVEC,"HUVEC; 1-5 ng/ml VEGF165, FIG. 6",5.5 fold
same,concentration at which the proliferation increase peaks,HUVEC; FIG. 6,2.5 ng/mL
same,concentration for maximal stimulation of DNA synthesis,"HUVEC; HUVEC, FIG. 2",4 ng/mL
same,increase in HUVEC proliferation over control at maximal stimulation,"HUVEC; HUVEC, FIG. 2",8 fold
same,concentration for half-maximal stimulation of DNA synthesis,"HUVEC; HUVEC, [3H]thymidine incorporation, FIG. 2",1 ng/mL
"GST protein: glutathione S-transferase alone, control protein prepared in a similar way [reference compound]",effect of GST alone on 125I-VEGF165 binding to HUVEC (in words),[1]; [6],no significant effect; also recorded: did not inhibit
same,effect of GST alone on 125I-VEGF165 binding to 231 cells (in words),VEGF165R on 231 cells [2]; [6],no significant effect; also recorded: did not inhibit
same,effect of GST alone on 125I-VEGF165 binding to PAE-KDR cells (in words),[3]; [6],no significant effect; also recorded: did not inhibit
same,inhibition of HUVEC proliferation by GST alone (in words),[5],did not inhibit
B1,concentration for maximal stimulation of DNA synthesis,"HUVEC; HUVEC, FIG. 2",20 ng/mL
same,increase in HUVEC proliferation over control at maximal stimulation,"HUVEC; HUVEC, FIG. 2",4 fold

# From patent US8889620B2, “Pharmaceutical compositions comprising peptide antagonists of vascular endothelial growth factor” (Children's Medical Center Corporation, priority 1997, dated 2014)
